B1: BBSome complex member BBS2 (Homo sapiens), Q9BXC9 (parent)
chain: MLLPVFTLKLRHKISPRMVAIGRYDGTHPCLAAATQTGKVFIHNPHTRNQHVSASRVFQSPLESDVSLLSINQAVSCLTAGVLNPELGYDALLVGTQTNLLAYDVYNNSDLFYREVADGANAIVLGTLGDISSPLAIIGGNCALQGFNHEGSDLFWTVTGDNVNSLALCDFDGDGKKELLVGSEDFDIRVFKEDEIVAEMTETEIVTSLCPMYGSRFGYALSNGTVGVYDKTSRYWRIKSKNHAMSIHAFDLNSDGVNELITGWSNGKVDARSDRTGEVIFKDNFSSAIAGVVEGDYRMDGHIQLICCSVDGEIRGYLPGTAEMRGNLMDTSAEQDLIRELSQKKQNLLLELRNYEENAKAELASPLNEADGHRGIIPANTRLHTTLSVSLGNETQTAHTELRISTSNDTIIRAVLIFAEGIFTGESHVVHPSIHNLSSSICIPIVPPKDVPVDLHLKAFVGYRSSTQFHVFESTRQLPRFSMYALTSLDPASEPISYVNFTIAERAQRVVVWLGQNFLLPEDTHIQNAPFQVCFTSLRNGGHLHIKIKLSGEITINTDDIDLAGDIIQSMASFFAIEDLQVEADFPVYFEELRKVLVKVDEYHSVHQKLSADMADHSNLIRSLLVGAEDARLMRDMKTMKSRYMELYDLNRDLLNGYKIRCNNHTELLGNLKAVNQAIQRAGRLRVGKPKNQVITACRDAIRSNNINTLFKIMRVGTASS
partner: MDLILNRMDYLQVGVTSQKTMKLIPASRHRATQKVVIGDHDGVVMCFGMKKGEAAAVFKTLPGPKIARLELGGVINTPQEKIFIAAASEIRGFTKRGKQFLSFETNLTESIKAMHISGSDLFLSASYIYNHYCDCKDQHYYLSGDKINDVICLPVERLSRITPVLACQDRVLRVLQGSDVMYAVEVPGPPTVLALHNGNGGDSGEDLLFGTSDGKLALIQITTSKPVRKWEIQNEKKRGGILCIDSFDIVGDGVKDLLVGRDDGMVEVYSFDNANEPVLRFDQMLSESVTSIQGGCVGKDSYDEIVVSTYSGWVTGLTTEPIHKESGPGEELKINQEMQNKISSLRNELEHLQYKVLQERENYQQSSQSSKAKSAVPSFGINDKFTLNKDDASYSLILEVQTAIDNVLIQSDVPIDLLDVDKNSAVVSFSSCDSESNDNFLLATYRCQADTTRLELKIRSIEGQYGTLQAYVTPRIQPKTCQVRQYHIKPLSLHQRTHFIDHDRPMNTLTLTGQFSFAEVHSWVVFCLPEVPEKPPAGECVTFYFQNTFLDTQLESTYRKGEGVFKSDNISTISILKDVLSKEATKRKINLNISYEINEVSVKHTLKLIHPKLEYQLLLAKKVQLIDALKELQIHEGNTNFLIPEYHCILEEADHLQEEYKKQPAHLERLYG
B2: BBSome complex member BBS5 (Homo sapiens), Q8N3I7 (parent)
chain: MSVLDALWEDRDVRFDLSAQQMKTRPGEVLIDCLDSIEDTKGNNGDRGRLLVTNLRILWHSLALSRVNVSVGYNCILNITTRTANSKLRGQTEALYILTKCNSTRFEFIFTNLVPGSPRLFTSVMAVHRAYETSKMYRDFKLRSALIQNKQLRLLPQEHVYDKINGVWNLSSDQGNLGTFFITNVRIVWHANMNDSFNVSIPYLQIRSIKIRDSKFGLALVIESSQQSGGYVLGFKIDPVEKLQESVKEINSLHKVYSASPIFGVDYEMEEKPQPLEALTVEQIQDDVEIDSDGHTDAFVAYFADGNKQQDREPVFSEELGLAIEKLKDGFTLQGLWEVMS
partner: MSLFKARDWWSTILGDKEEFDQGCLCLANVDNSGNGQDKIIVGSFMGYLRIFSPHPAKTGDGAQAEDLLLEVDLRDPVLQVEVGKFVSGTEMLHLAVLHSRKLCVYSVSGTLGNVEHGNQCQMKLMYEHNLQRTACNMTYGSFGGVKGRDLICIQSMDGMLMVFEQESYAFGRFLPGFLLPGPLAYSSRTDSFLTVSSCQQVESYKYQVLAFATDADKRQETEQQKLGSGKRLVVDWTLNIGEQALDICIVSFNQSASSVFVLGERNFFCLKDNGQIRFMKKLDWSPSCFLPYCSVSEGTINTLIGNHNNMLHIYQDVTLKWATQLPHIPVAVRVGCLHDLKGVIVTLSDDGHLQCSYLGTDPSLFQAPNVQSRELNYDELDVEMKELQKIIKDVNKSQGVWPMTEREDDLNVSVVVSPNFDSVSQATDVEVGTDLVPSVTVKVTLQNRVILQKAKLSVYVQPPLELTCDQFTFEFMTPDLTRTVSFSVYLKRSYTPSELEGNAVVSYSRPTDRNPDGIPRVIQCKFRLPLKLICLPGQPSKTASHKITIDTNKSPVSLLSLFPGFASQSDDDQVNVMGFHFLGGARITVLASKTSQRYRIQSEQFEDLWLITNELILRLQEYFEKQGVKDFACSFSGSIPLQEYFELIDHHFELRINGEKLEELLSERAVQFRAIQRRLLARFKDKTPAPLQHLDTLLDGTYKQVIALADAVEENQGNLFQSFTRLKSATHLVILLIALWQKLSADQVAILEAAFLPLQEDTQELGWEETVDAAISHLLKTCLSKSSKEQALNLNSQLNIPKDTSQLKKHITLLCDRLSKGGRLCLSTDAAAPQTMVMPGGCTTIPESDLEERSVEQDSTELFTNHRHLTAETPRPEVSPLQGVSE

Variants of: B1
Conditions: with BBS7, Q8IWZ6-2

Variant	effect of a mutation on the interaction
N540A	disrupting interaction strength
V598A	with no effect
T709A	with no effect
T487R	disrupting interaction strength
T487P	disrupting interaction strength
T487A	with no effect
L514A	with no effect
F711E	with no effect
R509E	with no effect
R509K	with no effect
V415E	with no effect
T424A	with no effect
L437E	with no effect
A678E	with no effect
R413A	with no effect
L655K	with no effect
L655A	with no effect
S497K	with no effect
Q346K	with no effect
H470A	with no effect
L402A	disrupting interaction strength
R506K	with no effect

Variant	effect of a mutation on the interaction
Y648E	with no effect
S433E	with no effect
A507K	with no effect
S551E	with no effect
S704E	with no effect
D653A	with no effect
I526E	with no effect
Q677E	with no effect
L350K	with no effect
A564E	with no effect
L486E	with no effect
L486A	with no effect
K691A	with no effect
Q468E	with no effect
R464T	disrupting interaction strength
M614E	with no effect
S438E	with no effect
L416K	with no effect
S332A	with no effect
M637K	with no effect
L367A	with no effect
Q581A	with no effect

Variant	effect of a mutation on the interaction
L387E	with no effect
L563A	with no effect
L563K	with no effect
L563E	with no effect
Q693E	with no effect
V430A	with no effect
A504S	disrupting interaction strength
N500E	with no effect
V716K	with no effect
K659E	with no effect
V600K	with no effect
V600A	with no effect
R643A	with no effect
G326K	with no effect
N327E	with no effect
D601K	with no effect
T536A	with no effect
K712E	with no effect
F590E	with no effect
L610A	disrupting interaction strength
I713A	with no effect
S618K	with no effect

Variant	effect of a mutation on the interaction
K344E	with no effect
D630A	with no effect
E362K	with no effect
I567K	with no effect
M645A	with no effect
R652K	with no effect
R382K	with no effect
H543K	with no effect
E473A	with no effect
N656A	with no effect
V533E	disrupting interaction strength
R703A	with no effect
N528A	with no effect
T386A	with no effect
L544E	disrupting interaction strength
D409E	with no effect
N380A	with no effect
F535A	with no effect
I679E	disrupting interaction strength
I679L	disrupting interaction strength
G375K	with no effect
L620E	with no effect

Variant	effect of a mutation on the interaction
L620A	with no effect
G462E	with no effect
L363E	with no effect
T639K	with no effect
T639A	with no effect
P530E	with no effect
Q516K	with no effect
R353E	with no effect
C534K	with no effect
R684K	with no effect
Y658K	with no effect
Y658E	with no effect
L669A	with no effect
R339A	with no effect
V461E	with no effect
N347K	with no effect
G657A	with no effect
G657K	with no effect
P479E	disrupting interaction strength
I695A	with no effect
S537K	with no effect
V446A	with no effect

Variant	effect of a mutation on the interaction
Q335E	with no effect
Q335K	with no effect
K449A	with no effect
G515A	with no effect
T524E	with no effect
K641E	with no effect
K641A	with no effect
P491K	with no effect
L538K	with no effect
S390E	with no effect
S390A	with no effect
L550A	with no effect
Y463A	disrupting interaction strength
S642K	with no effect
G425E	with no effect
F574K	with no effect
E357A	with no effect
V511A	with no effect
S440F	disrupting interaction strength
A631K	with no effect
S493E	with no effect
D636K	disrupting interaction strength

Variants of: B1
Conditions: with BBS7, Q8IWZ6-2
Remark: another data set of the same source

Variant	effect of a mutation on the interaction
S365R	disrupting interaction strength

Variants of: B2
Conditions: with pthb1_human BBS9, Q3SYG4

Variant	effect of a mutation on the interaction
MAVLDALWEDRDVRFDLSAQQMKTRPGEVLIDCLDSIEDTKGNNGDRGRLLVTNLRILWHSLALSRVNVSVGYNCILNITTRTANSKLRGQTEALYILTKCNSTRFEFIFTNLVPGSPRLFTSVMAVHRAYETSKMYRDFKLRSALIQNKQLRLLPQEHVYDKINGVWNLSSDQGNLGTFFITNVRIVWHANMNDSFNVSIPYLQIRSIKIRDSKFGLALVIESSQQSGGYVLGFKIDPVEKLQESVKEINSLHKVYSASPIFGVDYEMEEKPQPLEALTVEQIQDDVEIDSDGHTDAFVAYFADGNKQQDREPVFSEELGLAIEKLKDGFTLQGLWEVMS [S2A]	with no effect
MEVLDALWEDRDVRFDLSAQQMKTRPGEVLIDCLDSIEDTKGNNGDRGRLLVTNLRILWHSLALSRVNVSVGYNCILNITTRTANSKLRGQTEALYILTKCNSTRFEFIFTNLVPGSPRLFTSVMAVHRAYETSKMYRDFKLRSALIQNKQLRLLPQEHVYDKINGVWNLSSDQGNLGTFFITNVRIVWHANMNDSFNVSIPYLQIRSIKIRDSKFGLALVIESSQQSGGYVLGFKIDPVEKLQESVKEINSLHKVYSASPIFGVDYEMEEKPQPLEALTVEQIQDDVEIDSDGHTDAFVAYFADGNKQQDREPVFSEELGLAIEKLKDGFTLQGLWEVMS [S2E]	with no effect
KSVLDALWEDRDVRFDLSAQQMKTRPGEVLIDCLDSIEDTKGNNGDRGRLLVTNLRILWHSLALSRVNVSVGYNCILNITTRTANSKLRGQTEALYILTKCNSTRFEFIFTNLVPGSPRLFTSVMAVHRAYETSKMYRDFKLRSALIQNKQLRLLPQEHVYDKINGVWNLSSDQGNLGTFFITNVRIVWHANMNDSFNVSIPYLQIRSIKIRDSKFGLALVIESSQQSGGYVLGFKIDPVEKLQESVKEINSLHKVYSASPIFGVDYEMEEKPQPLEALTVEQIQDDVEIDSDGHTDAFVAYFADGNKQQDREPVFSEELGLAIEKLKDGFTLQGLWEVMS [M1K]	with no effect
ASVLDALWEDRDVRFDLSAQQMKTRPGEVLIDCLDSIEDTKGNNGDRGRLLVTNLRILWHSLALSRVNVSVGYNCILNITTRTANSKLRGQTEALYILTKCNSTRFEFIFTNLVPGSPRLFTSVMAVHRAYETSKMYRDFKLRSALIQNKQLRLLPQEHVYDKINGVWNLSSDQGNLGTFFITNVRIVWHANMNDSFNVSIPYLQIRSIKIRDSKFGLALVIESSQQSGGYVLGFKIDPVEKLQESVKEINSLHKVYSASPIFGVDYEMEEKPQPLEALTVEQIQDDVEIDSDGHTDAFVAYFADGNKQQDREPVFSEELGLAIEKLKDGFTLQGLWEVMS [M1A]	with no effect
ESVLDALWEDRDVRFDLSAQQMKTRPGEVLIDCLDSIEDTKGNNGDRGRLLVTNLRILWHSLALSRVNVSVGYNCILNITTRTANSKLRGQTEALYILTKCNSTRFEFIFTNLVPGSPRLFTSVMAVHRAYETSKMYRDFKLRSALIQNKQLRLLPQEHVYDKINGVWNLSSDQGNLGTFFITNVRIVWHANMNDSFNVSIPYLQIRSIKIRDSKFGLALVIESSQQSGGYVLGFKIDPVEKLQESVKEINSLHKVYSASPIFGVDYEMEEKPQPLEALTVEQIQDDVEIDSDGHTDAFVAYFADGNKQQDREPVFSEELGLAIEKLKDGFTLQGLWEVMS [M1E]	with no effect

From IntAct's records for PubMed 29039417
